The text below walks through data of patent US20260365734 (published 2026).

Where two headings read alike, the source gives them in different places.

Assay [1] has as its target T1, human VEGFA (human, UniProt P15692).
T1 chain: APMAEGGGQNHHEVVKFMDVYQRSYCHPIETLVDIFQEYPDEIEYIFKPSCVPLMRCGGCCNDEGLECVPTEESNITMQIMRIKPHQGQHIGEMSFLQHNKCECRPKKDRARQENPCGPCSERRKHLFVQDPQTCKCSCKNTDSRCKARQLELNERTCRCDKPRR
The assay is described as follows: BLI.

For assay [2], the target named is cynomolgus PD-L1 (cynomolgus). Briefly: BLI. (Biolayer interferometry detects binding as a change in optical thickness at a sensor tip.)
In assay [3] the target is T2, human PD-L1 ECD (human, UniProt Q9NZQ7). The assay is described as follows: BLI.
For assay [4], the target named is T3, human PD-L1 (cell surface) (human, UniProt Q9NZQ7). Briefly: FACS, T24 cells. A general note: In flow cytometry, cells or beads pass a laser one at a time.
Assay [5] concerns the target T3, human PD-L1 (cell surface). The assay is described as follows: FACS, NCI-H441 cells.
Assay [6] has as its target T3, human PD-L1 (cell surface). Briefly: FACS, CHO-h-PD-L1 cells.
Assay [7] deals with T3, human PD-L1 (cell surface). Briefly: FACS.
The target in assay [8] is T3, human PD-L1 (cell surface). The assay is described as follows: FACS, T24 cells. This is another data set of the same source.
In assay [9] the target is T3, human PD-L1 (cell surface). The assay is described as follows: FACS. The source holds these as a separate data set.
The target in assay [10] is mouse PD-L1 (cell surface) (mouse, UniProt Q9EP73). The assay is described as follows: FACS, Hepa1-6 cells.
In assay [11] the target is T2, human PD-L1 ECD. Briefly: BLI. The source holds these as a separate data set.
Assay [12] addresses T3, human PD-L1 (cell surface). The assay is described as follows: FACS. This is another data set of the same source.
Assay [13] has as its target T3, human PD-L1 (cell surface). The assay is described as follows: FACS, T24 cells. The source holds these as a separate data set.

Chain of cynomolgus PD-L1 (cynomolgus) (chain, as listed by the source): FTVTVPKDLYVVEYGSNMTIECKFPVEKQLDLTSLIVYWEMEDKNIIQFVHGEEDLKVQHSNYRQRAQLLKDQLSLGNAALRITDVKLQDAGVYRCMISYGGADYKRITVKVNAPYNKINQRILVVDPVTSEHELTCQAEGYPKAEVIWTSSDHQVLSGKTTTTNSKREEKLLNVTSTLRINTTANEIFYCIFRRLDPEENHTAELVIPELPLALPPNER
T2 sequence (Q9NZQ7 19-238): as the sequence (chain, as listed by the source) above, with T33A, S34A, N62S, Q68R, R82Q, L173F, A185T, I192T, L215H counted along it
T3 sequence (Q9NZQ7 19-238): as the sequence (chain, as listed by the source) above, with T33A, S34A, N62S, Q68R, R82Q, L173F, A185T, I192T, L215H counted along it
Chain of mouse PD-L1 (cell surface) (Q9EP73 19-238): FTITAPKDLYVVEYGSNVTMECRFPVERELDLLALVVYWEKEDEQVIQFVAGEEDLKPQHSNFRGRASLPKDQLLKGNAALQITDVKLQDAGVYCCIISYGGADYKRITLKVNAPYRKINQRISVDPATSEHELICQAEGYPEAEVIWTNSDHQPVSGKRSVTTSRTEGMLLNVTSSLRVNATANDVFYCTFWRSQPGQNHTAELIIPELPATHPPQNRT

B1: 4B11 (antibody, V domains shown)
VH: QVQLVESGGGVVQPGRSLRLSCAASGLSFSQYEMHWVRQAPGKEREFVAAISSSGISTYYADSVKGRFTISRDNSKNTLYLQMNSLRAEDTAVYYCAAELVDYHRWGYDYWGQGTLVTVSS
Take B1: the Kd in [1] was 2.82 nM. That is a single-digit nanomolar value.

B2: 4D2-hv1-NT (antibody, V domains shown)
VH: QVQLVESGGGLVKPGGSLRLSCAASGFSASDVVMAWYRQAPGKQREFVANLGASSTTRYADSVKGRFTISRDNAKNSLYLQMNSLRAEDTAVYYCNALVWTGSSYNNWGQGTQVTVSS
Take B2: the Kd in assay [2] was 3.76 nM; in assay [3] it was 4.54 nM. The EC50 is 0.043 nM in [4], 0.065 nM in assay [5] and 0.143 nM in assay [6].

B3: R2-4D2 (antibody, V domains shown)
VH: QVQLVESGGGLVQAGGSLRLSCAASGFSASDVVMAWYRQAPGKQREFVANLGASSTTRYADSVKGRFTISRDDAKNTVSLQMNSLKSEDTAVYYCNALVWNGSSYNNWGQGTQVTVSS
Take B3: the concentration giving a half-maximal response (EC50) in assay [7] amounted to 0.202 nM; in assay [8], 0.041 nM.

B4: 1F4-hv7-NT (antibody, V domains shown)
VH: QVQLVESGGGLVKPGGSLRLSCAASGFSASDVVMAWYRQAPGKQREFVANIAASSTTRYADSVKGRFTISRDNAKNSLYLQMNSLRAEDTAVYYCNALVWTGSSYNNWGQGTQVTVSS
B4: the Kd in assay [2] is 3.87 nM; in assay [3] it was 6.39 nM. Also, the concentration giving a half-maximal response (EC50) turned out to be 0.047 nM in assay [4], 0.056 nM in assay [5] and 0.13 nM in assay [6].

B5: 4E2-hv2-NT (antibody, V domains shown)
VH: EVQLVESGGGLVKPGGSLRLSCAASGFSAGDVVMAWYRQAPGKQREFVSNIAASSTTRYADSVKGRFTISRDNAKNSLYLQMNSLRAEDTAVYYCNALVWTGSSYNNWGQGTQVTVSS
Take B5: the equilibrium dissociation constant (Kd) in assay [2] worked out at 3.24 nM; in [3] it was 4.75 nM. The 50% effective concentration (EC50) in [4] is 0.047 nM; in [5] it was 0.054 nM; in [6], 0.11 nM.

B6: 5C12-hv7-NT (antibody, V domains shown)
VH: QVQLVESGGGLVKPGGSLRLSCAASGFSASDVVMAWYRQAPGKQREFVSNIAARGSTDYADSVKGRFTISRDNAKNSLYLQMNSLRAEDTAVYYCNALVWTGSSYNNWGQGTQVTVSS
As to B6, the dissociation constant (Kd) is 4.34 nM in [2] and 8.12 nM in assay [3]. In assay [4], this molecule had a concentration giving a half-maximal response (EC50) of 0.083 nM.

B7: 4E2-hv1-NT (antibody, V domains shown)
VH: EVQLVESGGGLVKPGGSLRLSCAASGFSAGDVVMAWYRQAPGKQREFVANIAASSTTRYADSVKGRFTISRDNAKNSLYLQMNSLRAEDTAVYYCNALVWTGSSYNNWGQGTQVTVSS
In the case of B7, the equilibrium dissociation constant (Kd) came to 3.4 nM in assay [2] and 4.64 nM in [3]. In addition, the EC50 in [4] was found to be 0.048 nM; in assay [5], 0.039 nM; in [6], 0.11 nM.

B8: 5F8-hv8 (antibody, V domains shown)
VH: EVQLVESGGGLVQPGGSLRLSCAASGFDFSDTHMSWVRQAPGKERELVAIITSGGSTDYVDSVKGRFTISRDNSKNTLYLQMNSLRAEDTAVYYCNARRTTIYWGQGTQVTVSS
B8 showed a half-maximal effective concentration (EC50) in assay [9] of 0.69 nM. Moreover, the binding result in [10] is reported as “no binding”.

B9: R3-5F8 (antibody, V domains shown)
VH: EVQLVESGGGLVQPGGSLRLSCVASGFDFSDTHMGWYRQAPGKERELVAIITSGGSTDYVDSVKGRFTISRDNAKNTVYLQMNSLKFEDTAVYYCNARRTTIYWGQGTQVTVSS
Regarding B9, the dissociation constant (Kd) in [11] came out at 0.054 nM. The values for the EC50 in assay [7] and in [8] were 0.53 nM and 0.503 nM, respectively.

B10: 7H3 (antibody, V domains shown)
VH: QVQLVESGGGVVQPGRSLRLSCAASGFTFGPYAMHWVRQAPGKERELVAAIWPSGSITYYADSVKGRFTISRDNSKNTLYLQMNSLRAEDTAVYYCAFGSPTGSITYWGQGTLVTVSS
For B10, the affinity in [1], expressed as Kd, was 2.08 nM.

B11: 1C8 (antibody, V domains shown)
VH: QVQLVESGGGVVQPGRSLRLSCAASGRSFSRYAMAWVRQAPGKERESVAVIGSGGGRTYYADSVKGRFTISRDNSKNTLYLQMNSLRAEDTAVYYCAARIYRVVGSGTYPAGYDYWGQGTLVTVSS
B11 showed a Kd in assay [1] of 2.61 nM.

B12: R2-5C12 (antibody, V domains shown)
VH: QVQLVESGGGLVQAGGSLRLSCAASGFSASDVVMAWYRQAPGKQREFVANIAARGSTDYANSVKGRFTISRDNAKNTVYLQMNSLKSDDTAVYYCNALVWNGSSYNNWGQGTQVTVSS
Consider B12, for which the affinity in [11], expressed as Kd, was 5.01 nM. Further, the EC50 in [7] amounted to 0.24 nM; in assay [12], 0.22 nM; in assay [8] it was 0.078 nM.

B13: R2-1F4 (antibody, V domains shown)
VH: QVQLVESGGGLVQAGGSLRLSCAASGFSASDVVMAWYRQAPGKQREFVANIAASSTTRYADSVKGRFTISRDDAKNTVSLQMNSLKSEDTAVYYCNALVWNGSSYNNWGQGTQVTVSS
In [11], B13 came in with a Kd of 2.04 nM. Further, the EC50 in [7] is 0.22 nM; in [8] it was 0.059 nM.

B14: R3-3H1 (antibody, V domains shown)
VH: QLQLVESGGGVVQPGGSLRLSCAASGIDFSDTHMGWYRQAPGKQRELVAIITSGGSTDYVDSVKGRFTISRDNAKNTVYLQMNSLKFEDTAVYYCNARRSTIYWGQGTQVTVSS
B14: binding in assay [11] was characterised by a dissociation constant (Kd) of 1.2 nM. In [7], a half-maximal effect (EC50) was put at 0.815 nM.

B15: Avastin (antibody, V domains shown)
VH: EVQLVESGGGLVQPGGSLRLSCAASGYTFTNYGMNWVRQAPGKGLEWVGWINTYTGEPTYAADFKRRFTFSLDTSKSTAYLQMNSLRAEDTAVYYCAKYPHYYGSSHWYFDVWGQGTLVTVSS
VL: DIQMTQSPSSLSASVGDRVTITCSASQDISNYLNWYQQKPGKAPKVLIYFTSSLHSGVPSRFSGSGSGTDFTLTISSLQPEDFATYYCQQYSTVPWTFGQGTKVEIK
B15: in [13], the binding result is given as “no binding”.

B16: 1G1 (antibody, V domains shown)
VH: QVQLVESGGGVVQPGRSLRLSCAASGLSFSYGTMAWVRQAPGKELELVAALSAGGTITYYADSVKGRFTISRDNSKNTLYLQMNSLRAEDTAVYYCAALGGYSGGSKYPYYDYWGQGTLVTVSS
In the case of B16, the Kd in [1] stood at 14.4 nM.

B17: R2-4E2 (antibody, V domains shown)
VH: EVQLVESGGGSVQDGGSLTLSCAASGFSAGDVVMAWYRQAPGKQREFVANIAASSTTRYTDSVKGRFTISRDNAKNTVYLQMNSLKSEDTAVYYCNALVWNGSSYNNWGQGTQVTVSS
Take B17: the results for the EC50 in assay [7] and in [8] were 0.148 nM and 0.05 nM, respectively.

One may read the Kd as the constant that tells how readily two partners part at equilibrium. By EC50 is commonly meant the concentration needed to bring the measured effect to its halfway point. A low value points to greater potency.
